From patent US20070172423A1, “Composition and method for modulating vasculogenesis for angiogenesis” (priority 1998, published 2007)

Legend:
PDGFR-α [1] = target: T1, PDGFR-α (Mus musculus, UniProt P26618); experiment: PDGFR-α activation in infarct border region (immunoprecipitation, pTyr Western blot); assay type: in vivo; details: compared to control, after coronary ligation
T1 construct: from tissue; host or cells: mouse heart, infarct border region

[2] = system: endothelial progenitor cells (EPCs); experiment: EPC mobilization assay; assay type: in vivo, mice
Procedure: For EPC mobilization assay, mice were treated with PDGF-CC protein (4.5 μg/day) immediately after femoral artery ligation using subcutaneously implanted osmotic minipumps (Alzet, type 2001). After two or five days, mice were sacrificed and spleens harvested for EPC analysis using procedures described previously (Asahara et al., Circ Res, 1999 85:221-8; Dimmeler et al., J. Clin. Invest., 2001 108:391-397). Spleens were mechanically minced using syringe plungers and laid over Ficoll to isolate splenocytes. Splenocytes were seeded into fibronectin-coated 24-well plates in 0.5 ml EBM medium. After three weeks of culturing, adherent cells were stained for Dil-Ac-LDL/lectin and number of the positive cells counted. Late outgrowth EPCs (after 3 weeks of culture) were identified by metabolic uptake of DiI-acetylated-LDL (Molecular Probes) and positive staining of Alexa 488-labeled isolectin B4 (Molecular Probes). Quantification of the EPC density was performed by confocal microscopy in five microscopic fields at 200× magnification, and average EPC density calculated.
To examine the possible mechanism of how PDGF-CC stimulates vessel growth and maturation, we next assessed its effects on vascular endothelial progenitor cells (EPCs). […] By scoring after 3 weeks, only late-outgrowth EPCs, but not surviving sloughed-off endothelial cells, are selectively assayed (Lin et al., J Clin Invest, 2000 105:71-7; Rafii, S., J Clin Invest, 2000 105:17-9).

PDGF alpha receptors = PDGF alpha receptors (Homo sapiens, UniProt P16234); experiment: Competition with 125I-PDGF-BB for binding to PAE-1 cells expressing PDGF alpha-receptor; parameters: expressed in transfected cells; details: 5 ng/ml 125I-PDGF-BB tracer, on ice 90 minutes
PDGF alpha receptors, sequence (P16234 24-1089): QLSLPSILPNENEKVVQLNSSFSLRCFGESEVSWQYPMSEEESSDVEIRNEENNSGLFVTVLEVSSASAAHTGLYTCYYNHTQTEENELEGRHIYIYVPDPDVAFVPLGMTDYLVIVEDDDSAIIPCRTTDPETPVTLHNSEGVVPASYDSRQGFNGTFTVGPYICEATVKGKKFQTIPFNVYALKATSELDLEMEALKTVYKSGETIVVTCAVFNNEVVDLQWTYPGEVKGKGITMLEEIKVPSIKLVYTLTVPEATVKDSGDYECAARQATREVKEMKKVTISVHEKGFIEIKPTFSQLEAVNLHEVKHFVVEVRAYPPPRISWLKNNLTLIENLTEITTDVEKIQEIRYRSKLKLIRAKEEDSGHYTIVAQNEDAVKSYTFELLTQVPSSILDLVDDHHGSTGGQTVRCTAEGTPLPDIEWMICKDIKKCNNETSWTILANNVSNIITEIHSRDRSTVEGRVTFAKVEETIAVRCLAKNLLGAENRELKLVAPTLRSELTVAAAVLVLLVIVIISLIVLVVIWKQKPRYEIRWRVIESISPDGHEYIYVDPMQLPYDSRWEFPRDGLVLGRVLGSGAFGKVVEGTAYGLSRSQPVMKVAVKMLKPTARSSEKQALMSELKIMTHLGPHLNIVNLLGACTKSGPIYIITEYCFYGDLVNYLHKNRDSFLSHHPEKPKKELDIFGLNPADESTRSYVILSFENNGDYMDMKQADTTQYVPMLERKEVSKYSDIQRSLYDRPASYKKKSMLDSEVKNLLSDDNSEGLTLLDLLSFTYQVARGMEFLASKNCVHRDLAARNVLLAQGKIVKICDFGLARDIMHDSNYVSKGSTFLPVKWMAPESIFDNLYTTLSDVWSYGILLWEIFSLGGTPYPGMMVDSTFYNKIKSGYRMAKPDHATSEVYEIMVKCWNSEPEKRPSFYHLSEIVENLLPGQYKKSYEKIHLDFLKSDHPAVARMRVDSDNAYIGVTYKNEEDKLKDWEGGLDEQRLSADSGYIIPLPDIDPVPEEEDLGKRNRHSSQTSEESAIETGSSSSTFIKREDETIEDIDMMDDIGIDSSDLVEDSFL
Procedure: Next, full length and truncated PDGF-C were tested for their capacity to bind to human PDGF receptors alpha and beta by analyzing their abilities to compete with PDGF-BB for binding to PDGF receptors. The binding experiments were performed on porcine aortic endothelial-1 (PAE-1) cells stably expressing the human PDGF receptors alpha and beta (Eriksson et al., EMBO J, 1992, 11, 543-550). Binding experiments were performed essentially as in Heldin et al. (EMBO J, 1988, 7:1387-1393). Different concentrations of human full-length and truncated PDGF-C, or human PDGF-BB were mixed with 5 ng/ml of ^125I-PDGF-BB in binding buffer (PBS containing 1 mg/ml of bovine serum albumin). Aliquots were incubated with the receptor expressing PAE-1 cells plated in 24-well culture dishes on ice for 90 minutes. After three washes with binding buffer, cell-bound 125]-PDGF-BB was extracted by lysis of cells in 20 mM Tris-HCl, pH 7.5, 10% glycerol, 1% Triton X-100. The amount of cell bound radioactivity was determined in a gamma-counter. A standard curve for the binding of ^125I-labeled PDGF BB homodimers to PAE-1 cells expressing PDGF alpha-receptor is shown in FIG. 18.

PDGFR-α [3] = experiment: PDGFR-α expression in gastrocnemius muscle by RNAse protection analysis; assay type: in vivo, mouse; details: 4.5 μg daily, day 2 after ligation, compared to vehicle
Procedure: RNase protection analysis (RPA) was performed according to the manufacturer's protocol (Ambion) to investigate gene expression at mRNA level. Riboprobes were prepared using RNA polymerase (Promega) and ^32P-UTP (Amersham). Mouse β-actin cDNA (250 bp, Ambion) was used as an internal control. For Western blot assay, subconfluent cells were rinsed with cold PBS supplemented with 5 µg/ml of antiprotease cocktail, lysed in RIPA buffer and analyzed on 10% acrylamide SDS PAGE in reducing condition. […] The precipitants were analysed on SDS-PAGE, and immunoblotted using a monoclonal anti-phosphotyrosine antibody (Santa Cruz).
To further verify the angio/arteriogenic activity of PDGF-CC in vivo, the effect of PDGF-CC in an established mouse model of hind limb ischemia is investigated (Luttun et al., Nat Med, 2002 1:1). PDGFR-α expression was quantified by RNAse protection analysis in the gastrocnemius muscle, which becomes highly ischemic after ligation of the femoral artery (Deindl et al., Circ Res, 2001 89:779-86; Couffinhal et al., American Journal of Pathology, 1998 152:1667-1679). […] Revascularization of the ischemic gastrocnemius muscle, which only occurred in those regions where regenerating muscle replaced the necrotic avascular muscle, was scored after continuous delivery, by osmotic minipump, of 4.5 μg PDGF-CC per day for one week after femoral artery ligation. […]

hSMC = hSMC proliferation assay; assay type: cell-based, human; details: two days, different concentrations
Procedure: Cell migration assays were performed on growth arrested confluent HMVEC, BAEC or hSMC cells. Cell monolayers were wounded with a rubber policeman and washed with serum-free medium. Dishes were then incubated for 20 hours in serum-free medium containing VEGF165, PDGF-AA, (R&D Systems, Minneapolis USA) or PDGF-CC. Each assay included two dishes per condition and was repeated three times independently. Cells were photographed at 40× magnification, and migration percentage corresponding to the ratio between area of the cells and the total area of the wound (Biocom visiol@b 2000 version 4.52, San Diego). For HMVEC proliferation assay, cells were seeded in 96-well plates (5 wells per condition), and incubated with VEGF, PDGF-AA, or PDGF-CC (50 ng/ml) after serum starvation. After 7 days, viable cells were counted using the cell Titer-glo luminescent cell viability assay. For NIH-3T3 and hSMC proliferation assay, cells cultured in 96-well plates were serum-starved overnight, followed by treatment with growth factors at different concentrations. Two days later, cell numbers were counted and proliferation percentage calculated, using cells cultured in medium containing 10% serum as control. Aortic ring assay was performed as described 51. […] Aortic rings were analysed at day 9 of culturing. […]

T1 sequence (P26618 25-1089): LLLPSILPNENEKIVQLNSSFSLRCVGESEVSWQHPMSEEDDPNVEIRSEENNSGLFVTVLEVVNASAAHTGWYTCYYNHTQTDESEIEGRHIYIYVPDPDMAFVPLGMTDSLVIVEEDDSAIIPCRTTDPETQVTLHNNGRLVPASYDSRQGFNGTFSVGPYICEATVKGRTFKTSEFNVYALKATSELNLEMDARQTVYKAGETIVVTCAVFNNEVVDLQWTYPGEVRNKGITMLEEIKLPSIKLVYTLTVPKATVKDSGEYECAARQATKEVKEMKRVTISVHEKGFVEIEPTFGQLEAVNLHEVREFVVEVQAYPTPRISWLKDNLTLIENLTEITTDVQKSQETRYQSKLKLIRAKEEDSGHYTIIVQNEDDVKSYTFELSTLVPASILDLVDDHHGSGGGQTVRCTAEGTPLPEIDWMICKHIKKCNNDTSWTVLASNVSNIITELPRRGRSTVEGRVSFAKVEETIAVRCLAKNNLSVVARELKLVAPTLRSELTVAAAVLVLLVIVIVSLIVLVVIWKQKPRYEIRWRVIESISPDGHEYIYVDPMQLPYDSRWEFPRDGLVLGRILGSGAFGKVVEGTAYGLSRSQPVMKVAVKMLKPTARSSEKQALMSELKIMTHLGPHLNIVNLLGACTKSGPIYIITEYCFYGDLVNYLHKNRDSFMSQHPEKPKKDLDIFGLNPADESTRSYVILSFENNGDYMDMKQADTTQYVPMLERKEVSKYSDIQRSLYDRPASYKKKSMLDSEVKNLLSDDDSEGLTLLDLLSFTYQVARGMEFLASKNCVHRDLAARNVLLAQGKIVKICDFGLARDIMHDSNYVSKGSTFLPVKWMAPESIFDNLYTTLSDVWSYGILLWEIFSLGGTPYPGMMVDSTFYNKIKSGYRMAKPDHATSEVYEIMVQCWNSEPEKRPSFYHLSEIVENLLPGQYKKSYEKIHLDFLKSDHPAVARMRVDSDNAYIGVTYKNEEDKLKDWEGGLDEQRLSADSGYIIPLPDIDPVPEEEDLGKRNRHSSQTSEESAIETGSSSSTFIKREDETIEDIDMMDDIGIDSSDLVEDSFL

B1: PDGF-CC: recombinant human PDGF-CC core domain homodimer, residues 230-345 of full-length PDGF-C (SEQ ID NO:40), produced in baculovirus infected insect cells (protein)
chain: GRKSRVVDLNLLTEEVRLYSCTPRNFSVSIREELKRTDTIFWPGCLLVKRCGGNCACCLHNCNECQCVPSKVTKKYHEVLQLRPKTGVRGLHKSLTDVALEHHEECDCVCRGSTGG
modifications: homodimer; PDGF-C core domain
amount of active PDGFR-α in the border region (PDGFR-α [1]): increased
mobilization of EPCs ([2]; baseline conditions (no ischemia)): did not affect
augmentation of EPC mobilization ([2]; femoral artery ligation, day five): persisted to day five, albeit at a lower level
augmentation of EPC mobilization above control group ([2]; femoral artery ligation, two days, 4.5 μg/day via minipump): approximately 3 fold
augmentation of EPC mobilization compared with the vehicle group (FIG. 38 legend) ([2]; from day 2 to day 5 after hind limb ischemia): ~4 fold
competition for binding to the PDGF alpha-receptor (PDGF alpha receptors): efficiently competed
PDGFR-α expression in gastrocnemius muscle (PDGFR-α [3]): almost completely restored
proliferation of cultured hSMC cells (hSMC): stimulated
